# Article PMC12016152
# B1: ASIC4: ASIC4N191A (protein)
# parent chain: MPIEIVCKIKFAEEDAKPKEKEAGDEQSLLGAAQGPAAPRDLATFASTSTLHGLGRACGPGPHGLRRTLWALALLTSLAAFLYQAASLARGYLTRPHLVAMDPAAPAPVAGFPAVTLCNINRFRHSALSDADIFHLANLTGLPPKDRDGHRAAGLRYPEPDMVDILNRTGHQLADMLKSCNFSGHHCSASNFSVVYTRYGKCYTFNADPQSSLPSRAGGMGSGLEIMLDIQQEEYLPIWRETNETSFEAGIRVQIHSQEEPPYIHQLGFGVSPGFQTFVSCQEQRLTYLPQPWGNCRAESELREPELQGYSAYSVSACRLRCEKEAVLQRCHCRMVHMPGNETICPPNIYIECADHTLDSLGGGSEGPCFCPTPCNLTRYGKEISMVKIPNRGSARYLARKYNRNETYIRENFLVLDVFFEALTSEAMEQQAAYGLSALLGDLGGQMGLFIGASILTLLEILDYIYEVSWDRLKRVWRRPKTPLRTSTGGISTLGLQELKEQSPCPSRGRAEGGGASSLLPNHHHPHGPPGSLFEDFAC
# B2: ASIC4: ASIC4N243A (protein)
# parent chain: B1 parent chain
# B3: ASIC4: ASIC4N376A (protein)
# parent chain: B1 parent chain
# B4: ASIC4: ASIC4N191A, N243A, N341A, N376A (protein)
# parent chain: B1 parent chain
# B5: ASIC4: ASIC4N341A (protein)
# parent chain: B1 parent chain
# Assay: amygdala cell surface fraction, western blot, Asic4-/- mice
# Conditions: glycan lost; control: AAV-DIO-ASIC4WT rescue
row,Protein,other: surface expression of ASIC1a in vivo
1,B1,increases
2,B2,no change

# Assay: whole-cell patch clamp, pH 5.0 peak current density, CHO
# Conditions: glycan lost; control: ASIC1a + ASIC4WT
row,Protein,other: channel current of co-expressed ASIC1a
1,B3,no change
2,B4,increases
3,B1,increases
4,B2,no change
5,B5,increases

# Assay: surface biotinylation, western blot, CHO (n = 2)
# Conditions: glycan lost; control: ASIC1a + ASIC4WT
row,Protein,other: surface expression of co-expressed ASIC1a
1,B3,no change
2,B4,increases
3,B1,increases
4,B2,no change
5,B5,increases
